Series [1] in a line: melting temperature (DSF); higher = more thermostable. In a few lines: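 After expression in E. coli C41(DE3), the candidate enzymes were bound to nickel beads and released with SUMO protease. Their melting temperature was found by differential scanning fluorimetry with Sypro Orange on a Bio-Rad CFX96. Each sealed PCR plate well held 45 μL enzyme (0 to 0.3 mg/mL) plus 5 μL 5X dye, and fluorescence was read for 250 cycles from 25 °C at 0.3 °C per cycle (ramp 0.3 °C/s).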

Series [2] is described as follows: purified protein yield per well (BCA); higher = higher soluble expression. In a few lines: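 The measured quantity is purified protein yield per well, determined with the Pierce Rapid Gold BCA kit. Anything below 25 ug (0.1 mg/mL) lies under the detection threshold. Enzymes were expressed in E. coli C41(DE3) in 2 mL autoinduction cultures with 100 µg/mL kanamycin at 37 °C for 2 h, then 18 °C for 40 h, and purified on an OT-2 robot using Ni-charged magnetic beads and SUMO protease release.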

Series [3] is described as follows: PET hydrolysis, aromatic products released after 48 h (umol product/mg enzyme); higher = more PET depolymerization activity. In a few lines: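 Hydrolysis activity toward PET is reported as supernatant aromatic product per mg enzyme. To measure it, 5 μg (50 μL) of tagless enzyme was incubated with 3.5 mg amorphous PET film or crystalline PET powder in 450 μL buffer for 48 h at 40 or 60 °C in sealed, unshaken plates. The product was quantified by absorbance at 260 and 280 nm relative to buffer blanks.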

Where [4] appears, read: substrate: cryPow, 40 °C, pH 4.5.
Where [5] appears, read: substrate: cryPow, 40 °C, pH 5.5.
Where [6] appears, read: substrate: cryPow, 40 °C, pH 6.5.
Where [7] appears, read: substrate: cryPow, 40 °C, pH 7.5.
[8] abbreviates: substrate: cryPow, 60 °C, pH 4.5.
The mark [9] stands for this setting: substrate: cryPow, 60 °C, pH 5.5.
Where [10] appears, read: substrate: cryPow, 60 °C, pH 6.5.
[11] abbreviates: substrate: cryPow, 60 °C, pH 7.5.
The mark [12] stands for this setting: substrate: aFilm, 40 °C, pH 4.5.
Setting [13] is: substrate: aFilm, 40 °C, pH 5.5.
Where [14] appears, read: substrate: aFilm, 40 °C, pH 6.5.
The mark [15] stands for this setting: substrate: aFilm, 40 °C, pH 7.5.
Where [16] appears, read: substrate: aFilm, 60 °C, pH 4.5.
[17] abbreviates: substrate: aFilm, 60 °C, pH 5.5.
Where [18] appears, read: substrate: aFilm, 60 °C, pH 6.5.
The mark [19] stands for this setting: substrate: aFilm, 60 °C, pH 7.5.

± gives the standard deviation of the averaged measurements.

With “DQIGQAPTASNITGNGSFATTSASISSTVSGFGGGRVYYPTAAGTYPVIAISPGFTATWSSLAWIGPRLSSWGFVVVGIETNSIYDQPASRGNQLLAALNWAVNSSPTAVRSHVDGSRRGVAGHSMGGGGTLEALAADTTGLVKAGVPLAPWNTDKTWNNVSEPVLIVGGQADTVAPVASHSIPFYNTLAGPKTYVELTGQSHFFPQTTNATASRALVAWFKRWVSQDSRFTPFTCGFSGVAVSDFRSNAC [ESM082]”, in series [1], the melting temperature amounted to 67.6 C. In addition, in series [2], the “purified protein yield per well” value worked out at 151 µg. The PET hydrolysis in series [3] (setting [4]) is 9; in series [3] (setting [5]), 22; in series [3] (setting [6]), 29; in series [3] (setting [7]), 36; in series [3] (setting [8]), under 3; in series [3] (setting [9]) it was 23. Moreover, the values for the PET hydrolysis in series [3] (setting [10]) and in series [3] (setting [11]) were 46 and 65, respectively.
The sequence “MMPSADAASTLADNPYQRGPDPTVASVAAAYGTFATAQLTVPPGNGFNGGSIYYPTDTSQTYGAVAIVPGYTARFADEEAWMGPRLASFGFVVIGVETNSRNDFDTARGTQLLAALDYLTNSSAVRDRVDRNRLAVIGHSMGGGGALVAADQRPSLKAAIGLAPYKPSGNLANNRVPTLILSGQNDTVVTPSYLDGLYPTLPAATPGAYILLSGADHLFFTRPNDIEMRSQIPWLKTFVDNDTRYSQFLCPTLKDTTSVARSTAKCSLIPSGGNPSTPPSSSSPSPSSPASSSPPPSGAKHIVGAQSGRCVDVPNSSRTNGTRVQLYDCHSGTNQQWTYTSSRQLTVYGSMCLDAAGSGNGAAVQIYSCNGQANQQWNVNSNGTISGVQSGRCLDVWGTNNGQQIQLYDCHGQANQRFSLS [TEP054]” had a melting temperature in series [1] of 60.7 C. Further, the “purified protein yield per well” value in series [2] was 297 µg. In addition, the PET hydrolysis in series [3] (setting [12]) was 3; in series [3] (setting [13]), 8 ± 1.4; in series [3] (setting [14]) it was 9.5 ± 0.71; in series [3] (setting [15]), under 3; in series [3] (setting [16]) it was under 3; in series [3] (setting [17]), under 3. For the same sequence, the PET hydrolysis is under 3 in series [3] (setting [18]); under 3 in series [3] (setting [19]); 14 ± 4.2 in series [3] (setting [4]); 24 ± 2.8 in series [3] (setting [5]); 35 in series [3] (setting [6]); 18 ± 2.8 in series [3] (setting [7]). The PET hydrolysis came out at 2 ± 2.8 in series [3] (setting [8]), 7 ± 1.4 in series [3] (setting [9]), 7.5 ± 2.1 in series [3] (setting [10]) and 1.5 ± 2.1 in series [3] (setting [11]).
As for “ATPDHAATADHASAHHHAAYPVSQQTIPATDGTGFGAATLYAPQGTGRKTLGAIVVAPGLKGDQSDLAWLAQDLAGEGFIVLNMDTLGKYDLPNQRSYEMLAAAKYLATASSVKDQVDPADIGVVGYSLGGGGALQAAVEQHGLKAAVALMPYDFPAGTTDPYKPTESPTYPGITTPTLVITGQADTTAPAASMGKPAYDSIPASTPKQYLELRGADHLAARATTNGTVRDAVTNFLKVYLDGNSAYRKYVCPAPPTSAAISESASSCPR [ESM174]”, the melting temperature in series [1] was 44.5 C. Further, the “purified protein yield per well” value in series [2] was determined as 86.9 µg. Besides, the PET hydrolysis in series [3] (setting [4]), in series [3] (setting [5]), in series [3] (setting [6]), in series [3] (setting [7]), in series [3] (setting [8]) and in series [3] (setting [9]) was under 3 each time. The PET hydrolysis in series [3] (setting [10]) and in series [3] (setting [11]) was under 3 throughout.
Regarding “STRNQEPTLQSIEAARGPYEIATQSVPPAVNTGFGGGTIYYPATTGAGKFGAVALSPGYMEKEYSFSWLGTRLASQGFVVFIINTQNSEEFPSARTDELLASLNYLTQTSEVRDRVDPNRLAVMGHSMGGGAALEAAEKNQSLRAVISMTPWNIKTTYSDIKTPTLIIGAQYDNIAPVHDHAQPSYASLPNDLAKSYLELRNGNHFSPNMENTAIARSSTVWLKRFVDGDTRYNKFICPGPTVGDEFNIVQSNCPIL [DP079]”, in series [1], the melting temperature was determined as 60.4 C. The “purified protein yield per well” value in series [2] was found to be 281 µg. In addition, the PET hydrolysis in series [3] (setting [13]) is under 3; in series [3] (setting [14]) it was under 3; in series [3] (setting [15]) it was under 3; in series [3] (substrate: aFilm, 40 °C, pH 8.5), under 3; in series [3] (setting [17]), under 3; in series [3] (setting [18]), under 3. Also, the PET hydrolysis in series [3] (setting [19]) is under 3; in series [3] (substrate: aFilm, 60 °C, pH 8.5) it was under 3; in series [3] (setting [5]), under 3; in series [3] (setting [6]), under 3; in series [3] (setting [7]), under 3; in series [3] (substrate: cryPow, 40 °C, pH 8.5), under 3. For the same sequence, the PET hydrolysis in series [3] (setting [9]) is under 3; in series [3] (setting [10]) it was under 3; in series [3] (setting [11]), under 3; in series [3] (substrate: cryPow, 60 °C, pH 8.5) it was under 3.
“ADNPYQRGPDPTRASVAAVNGPFANTSVSVPTGYGFNGGRIYYPTDTSQGTFGAIAISPGYTALFSAELAWMGPWLASHGFVVIGIETNSRNDFDTARGTQLLAALDYLTQQSPVRDRVDPNRLAVSGHSMGGGGALSAAIRRSSLKAAVGITPYSPSQNLANDRVPTMVISGQADTVVTPSYALNLYNSLPASTESVYLEVAGGDHGFMVGRSNPVLIRTMLPFLKMFVDNDSRYSQFLCPLLDSSGVVTYRSTCPLLPTDPTTPPTGSPTPTPTTPPPSGSANEIIGTQSGRCVDVPNASRNNGTRVQLYDCNKQTNQSWTYTSNRQLRVYDNMCLDAAGSGNGAAIQIYTCHSGTNQQWNVNSNGTITGVQSGRCLDVWSSNNGAQIQLYDCHGQPNQQFRLAPLA [TEP010]” yielded a melting temperature in series [1] of 62.8 C. Also, in series [2], the “purified protein yield per well” value turned out to be 269 µg. The PET hydrolysis in series [3] (setting [12]), in series [3] (setting [13]), in series [3] (setting [14]), in series [3] (setting [15]), in series [3] (setting [16]) and in series [3] (setting [17]) was under 3 throughout. Also, the PET hydrolysis in series [3] (setting [18]) was under 3; in series [3] (setting [19]) it was under 3; in series [3] (setting [4]) it was 13.5 ± 2.1; in series [3] (setting [5]), 24; in series [3] (setting [6]) it was 41 ± 1.4; in series [3] (setting [7]), 27 ± 4.2. For the same sequence, the PET hydrolysis is under 3 in series [3] (setting [8]), 6 ± 1.4 in series [3] (setting [9]), 5 ± 1.4 in series [3] (setting [10]) and 2 ± 2.8 in series [3] (setting [11]).

The record behind these values is the supplement of paper PMC12455559.
